The record followed here is paper PMC8748766, “The catalytic activity of TCPTP is auto-regulated by its intrinsically disordered tail and activated by Integrin alpha-1” (Nature Communications, 2022).

The subject of data set [1] is pEGFR peptide-1, derived from the cytoplasmic tail of EGFR. Put plainly: Phosphatase kinetic analysis (Michaelis-Menten) of TCPTP constructs, pEGFR peptide-1 substrate. The data set is classed as biochemical. The following applies: mean ± SE, n = 9 (TCPTPCAT, TCPTP) or 12 (TCPTPC-term, TCPTPL1). The procedure: (§1) The rate of dephosphorylation of TCPTP and TCPTPCAT (residue 1–314) against 2 phosphotyrosine peptides derived from EGFR was monitored either with or without ITGA1 peptide (ITGA1_FCT & ITGA1_TR) in assay buffer (25 mM Hepes pH 7.4, 50 mM NaCl and 1 mM DTT). Lyophilized powder of all synthetic peptides was dissolved in assay buffer without DTT (phosphopeptides, 5 mM; ITGA1 peptides, 2 mM). For the kinetic analysis, the concentration of the enzyme was fixed at 1 nM while the substrate (phosphopeptides) concentration was varied from 2.5 μM to 160 μM in a total reaction volume of 200 μl. Effect of ITGA1 peptide on TCPTP & TCPTPCAT kinetics were assessed in saturated condition by adding an excess amount of ITGA1 peptide to the reaction mixture (ITGA1_TR = 1 μM; ITGA1_FCT = 25 μM). The reaction was incubated at 30 °C for 30 min and stopped by the addition of 30 μl phosphate reagent (phosphate colorimetric assay kit; Bio Vision) following the manufacturer’s instructions. Data were normalized and fitted using a nonlinear curve, and kinetics parameters (KM and kcat) were calculated from the Michaelis-Menten equation using Graph Pad Prism 9.0. All data points in the enzyme kinetics experiment were measured in triplicate, and the experiments were repeated three times.

Data set [2] has as its system pEGFR peptide-2, derived from the EGFR's kinase domain activation loop. Put plainly: Phosphatase kinetic analysis (Michaelis-Menten) of TCPTP constructs, pEGFR peptide-2 substrate. The data set is classed as biochemical. The conditions noted are these: mean ± SE, n = 9. The procedure: as §1
Supplementary Table 2: Enzymatic activity assay (Michaelis-Menten analysis); substrate pEGFR peptide-2, derived from the EGFR’s kinase domain activation loop. Calculated kinetic parameter are presented as the mean of nine independent reactions (n=9; mean ± SE). Source data are provided as a Source Data file. kcat (s-1) Km (µM) kcat/Km (µM -1s-1)

The target of data set [3] is T1, TCPTP (full-length TCPTP, residues 1-387, TC45 isoform) (human, UniProt P17706-2 1-387).
T1 sequence (looked up): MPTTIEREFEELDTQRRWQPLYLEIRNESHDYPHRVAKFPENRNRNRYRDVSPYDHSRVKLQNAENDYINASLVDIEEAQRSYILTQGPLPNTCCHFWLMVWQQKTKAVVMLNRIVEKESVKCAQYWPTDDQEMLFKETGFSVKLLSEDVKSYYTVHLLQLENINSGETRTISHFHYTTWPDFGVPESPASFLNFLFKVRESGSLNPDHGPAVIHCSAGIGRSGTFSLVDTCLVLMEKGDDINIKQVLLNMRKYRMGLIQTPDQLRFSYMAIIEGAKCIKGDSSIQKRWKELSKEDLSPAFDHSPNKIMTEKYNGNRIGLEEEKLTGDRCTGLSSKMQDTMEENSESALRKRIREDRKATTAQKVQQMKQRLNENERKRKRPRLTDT
In words: cell-based or functional assay.

In data set [4] the target is T2, TCPTPCAT (TCPTP catalytic domain, residues 1-302) (human, UniProt P17706-2 1-302).
T2 construct: T cell protein tyrosine phosphatase (TCPTP, PTPN2), human, TC45 isoform, catalytic domain residues 1-302, sub-cloned into pRP1B for all NMR experiments; (2H,15N)-labelled where it was the observed species, unlabelled where it was titrated into the labelled tail; also called T-Cell Protein Tyrosine Phosphatase catalytic domain; PTPN2 catalytic domain; source: E. coli BL21 (DE3) RIL, purified …
T2 sequence (looked up): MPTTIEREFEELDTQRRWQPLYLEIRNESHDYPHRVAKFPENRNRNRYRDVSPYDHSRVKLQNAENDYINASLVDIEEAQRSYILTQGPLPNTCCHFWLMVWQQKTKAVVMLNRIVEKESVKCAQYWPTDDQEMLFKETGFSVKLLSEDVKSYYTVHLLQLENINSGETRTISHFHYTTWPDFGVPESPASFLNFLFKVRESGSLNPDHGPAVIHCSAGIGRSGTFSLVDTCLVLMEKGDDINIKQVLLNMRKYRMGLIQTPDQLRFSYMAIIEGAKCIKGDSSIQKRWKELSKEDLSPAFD
Put plainly: NMR titration; 15N-labelled tail observed (2D [1H,15N] HSQC, 0.1 mM), unlabelled TCPTPCAT added in increasing amounts (1:0 to 1:20 tail:CAT); NMR buffer 20 mM HEPES pH 6.8, 150 mM NaCl, 0.5 mM TCEP, 90% H2O/10% D2O; 298 K or 283 K. The conditions noted are these: both partners purified.

The next data set addresses T3, TCPTPCAT (Homo sapiens, UniProt P17706).
T3 construct: TCPTP and TCPTPCAT (residue 1–314) against 2 phosphotyrosine peptides derived from EGFR; His6 (N, cleaved yes); made in house; host or cells: E. coli BL21 (DE3) RIL
T3 sequence (P17706 1-314 isoform P17706-2): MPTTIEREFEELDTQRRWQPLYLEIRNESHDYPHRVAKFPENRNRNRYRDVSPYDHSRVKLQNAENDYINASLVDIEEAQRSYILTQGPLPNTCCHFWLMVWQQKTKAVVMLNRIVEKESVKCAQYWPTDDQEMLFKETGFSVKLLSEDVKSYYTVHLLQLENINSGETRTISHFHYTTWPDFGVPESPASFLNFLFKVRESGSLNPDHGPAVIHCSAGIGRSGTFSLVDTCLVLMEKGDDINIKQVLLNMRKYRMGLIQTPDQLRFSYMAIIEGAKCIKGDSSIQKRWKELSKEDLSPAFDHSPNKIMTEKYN
In words: NMR titration (2D HSQC/TROSY) binding to TCPTPCAT
An excerpt: Polymerase chain reaction (PCR) fragments of TCPTP (residues: 1–387) TCPTPCAT (catalytic domain, residues: 1–288, 1–302 or 1–314), TCPTPTail (C-terminal tail, residues: 289–387 or 303–387) were amplified from full-length human TCPTP (TC45 isoform). TCPTP, TCPTPCAT (residues: 1–288, 1–314), and TCPTPTail (residues: 289–387) fragments were cloned into pMCSG7 including a N-terminal His6-tag using ligation-independent cloning. For all NMR experiments, the PCR fragments of TCPTP, TCPTPCAT (residues: 1–302) and TCPTPTail (residue: 303–387) were sub-cloned into pRP1B as previously described.
NMR data were collected on either Bruker NEO 600 MHz or 800 MHz spectrometers equipped with TCI HCN z-gradient cryoprobes at 298 K or 283 K. NMR measurements of TCPTP’s variant construct were recorded using (^1H,^15N)-, (^2H,^15N)-, (^1H,^15N,^13C), or (^2H,^15N,^13C)-labeled protein at a final concentration of 0.6 mM for backbone assignment or 0.1 mM for titration in NMR buffer and 90% H2O/10% D2O. The sequence-specific backbone assignments of TCPTP (residues 1–387), TCPTPCAT (residues 1–302), TCPTPTail (residues 303–387) and other variants were achieved using 3D triple resonance experiments including […], 3D HNCA, 3D HN(CO)CA, 3D HN(CO)CACB, and 3D HNCACB either as HSQC or TROSY variations. All NMR data were processed using TopSpin 4.0.5[44] and analyzed using either CARA (http://www.cara.nmr.ch) and/or CcpNMR[45].

The nature of data set [5]: DiFMUP assay of TCPTP, TCPTPCAT, PTP1B and PTP1BCAT. In kind it is biochemical. The following applies: PTP1B (1–400) vs PTP1BCAT (1–321), DiFMUP, n = 6. The procedure:
Activity of TCPTP, TCPTPCAT (residue 1–314) either with or without ITGA1 peptides (ITGA1_TR; 1:50 molar ratio, ITGA1_FCT; 1:1000 molar ratio), PTP1B (residue 1–400) and PTP1BCAT (residue 1–321) were assessed in assay buffer (25 mM Hepes pH 7.4, 50 mM NaCl, and 1 mM DTT). The assay was performed in black polystyrene flat bottom 96-well plate. The concentration of DiFMUP was fixed at 10 μM and protein concentration at 2.5 nM in total reaction volume of 100 μl. The emitted fluorescent signal at 455 nm was continuously recorded for 25 min using a Tecan Infinite M1000 pro microplate reader (Tecan i-control, 2.0.10.0).

[6] abbreviates: pEGFR peptide-2 2.5-160 μM, 1 nM enzyme, pH 7.4, 30 °C 30 min.

B1: TCPTPCAT: TCPTP catalytic domain, residues 1–288, 1–302 (NMR) or 1–314 (activity, SAXS) (protein, UniProt P17706 1-314, looked up, fragment)
chain: MPTTIEREFEELDTQRRWQPLYLEIRNESHDYPHRVAKFPENRNRNRYRDVSPYDHSRVKLQNAENDYINASLVDIEEAQRSYILTQGPLPNTCCHFWLMVWQQKTKAVVMLNRIVEKESVKCAQYWPTDDQEMLFKETGFSVKLLSEDVKSYYTVHLLQLENINSGETRTISHFHYTTWPDFGVPESPASFLNFLFKVRESGSLNPDHGPAVIHCSAGIGRSGTFSLVDTCLVLMEKGDDINIKQVLLNMRKYRMGLIQTPDQLRFSYMAIIEGAKCIKGDSSIQKRWKELSKEDLSPAFDHSPNKIMTEKYN
modifications: catalytic domain
As for B1, the kcat in data set [1] (pEGFR peptide-1 2.5-160 μM, 1 nM enzyme, 25 mM Hepes pH 7.4, 50 mM NaCl, 1 mM DTT, 30 °C 30 min) is 34.0 ± 0.9 s⁻¹; in data set [2] (setting [6]), 36.3 ± 0.9 s⁻¹. Moreover, the Km in data set [1] (pEGFR peptide-1 2.5-160 μM, 1 nM enzyme, pH 7.4, 30 °C 30 min) stood at 24.8 ± 2 µM; in data set [2] (setting [6]), 34 ± 2.2 µM. The kcat/Km was 1.4e+06 ± 100000 M⁻¹ s⁻¹ in data set [1] (pEGFR peptide-1, pH 7.4, 30 °C) and 1.1 ± 0.1 µM -1s-1 in data set [2] (pEGFR peptide-2).

B2: ITGA1_TR (ITGA1 tandem repeat; 2x ITGA1_TCT) (peptide)
peptide: RPLKKKMEKRPLKKKMEK
Take B2: the “rate of dephosphorylation (EGFR phosphopeptides, DiFMUP) by TCPTP saturated with excess ITGA1 peptide (ITGA1_TR 1 μM), against TCPTP alone” value in data set [3] was approximately 3 fold.

B3: TCPTP_(Tail) (C-terminal tail, residues 303-387) (domain or fragment, human, UniProt P17706-2 303-387, looked up)
chain: HSPNKIMTEKYNGNRIGLEEEKLTGDRCTGLSSKMQDTMEENSESALRKRIREDRKATTAQKVQQMKQRLNENERKRKRPRLTDT
notes: T cell protein tyrosine phosphatase (TCPTP, PTPN2), human, TC45 isoform, C-terminal tail residues 303-387, sub-cloned into pRP1B for all NMR experiments; also called TCPTP C-terminal tail; TCPTP IDR; source: E. coli BL21 (DE3) RIL, purified (His-trap, TEV cleavage, subtraction, heat step 80 °C 10 min, SEC)
Regarding B3, the binding result in data set [4] is given as “binds”.

B4: TCPTPTailRK: TCPTPTail with N373R/E374K/N375R/E376K (protein)
chain: HSPNKIMTEKYNGNRIGLEEEKLTGDRCTGLSSKMQDTMEENSESALRKRIREDRKATTAQKVQQMKQRLRKRKRKRKRPRLTDT
modifications: left off: His6, end not stated, cleaved
notes: TCPTPTail with N373R/E374K/N375R/E376K
For the molecule B4, the “NMR titration: interaction strength vs TCPTPTail” value in the data set with TCPTPCAT (2D [1H,15N] HSQC, reduction in peak intensities at lower ratio (1:10)) is “tighter interaction”. Besides, the “NMR titration: CSPs in (2H,15N)-labeled TCPTPCAT” value with TCPTPCAT (2D [1H,15N] TROSY, unlabeled ligand added) is “Small, but clear chemical shift perturbations (CSPs) were readily identified”.

B5: TCPTP_(TailRK) (N373R/E374K/N375R/E376K) (domain or fragment, human, UniProt P17706-2 303-387, looked up)
chain: HSPNKIMTEKYNGNRIGLEEEKLTGDRCTGLSSKMQDTMEENSESALRKRIREDRKATTAQKVQQMKQRLRKRKRKRKRPRLTDT
notes: T cell protein tyrosine phosphatase (TCPTP, PTPN2), human, TC45 isoform, C-terminal tail with 373NENE376 changed to 373RKRK376; 15N-labelled when observed; also called TCPTP_(TaiRK); source: E. coli BL21 (DE3) RIL, purified (His-trap, TEV cleavage, subtraction, heat step 80 °C 10 min, SEC)
Take B5: in data set [4], the binding result is reported as “binds”.

B6: ITGA1_FCT (ITGA1 full cytoplasmic tail) (peptide)
peptide: KIGFFKRPLKKKMEK
Consider B6, for which the “rate of dephosphorylation (EGFR phosphopeptides, DiFMUP) by TCPTP saturated with excess ITGA1 peptide (ITGA1_FCT 25 μM), against TCPTP alone” value in data set [3] was approximately 3 fold.

B7: PTP1B: PTP1B (residue 1–400) (protein, UniProt P18031 1-400, looked up, fragment)
chain: MEMEKEFEQIDKSGSWAAIYQDIRHEASDFPCRVAKLPKNKNRNRYRDVSPFDHSRIKLHQEDNDYINASLIKMEEAQRSYILTQGPLPNTCGHFWEMVWEQKSRGVVMLNRVMEKGSLKCAQYWPQKEEKEMIFEDTNLKLTLISEDIKSYYTVRQLELENLTTQETREILHFHYTTWPDFGVPESPASFLNFLFKVRESGSLSPEHGPVVVHCSAGIGRSGTFCLADTCLLLMDKRKDPSSVDIKKVLLEMRKFRMGLIQTADQLRFSYLAVIEGAKFIMGDSSVQDQWKELSHEDLEPPPEHIPPPPRPPKRILEPHNGKCREFFPNHQWVKEETQEDKDCPIKEEKGSPLNAAPYGIESMSQDTEVRSRVVGGSLRGAQAASPAKGEPSLPEKDED
For B7, the “autoregulatory behavior of the C-terminal tail (activity vs catalytic domain)” value in data set [5] is “not observed”.

For orientation: kcat means the maximal rate divided by the concentration of active sites. The term Km denotes the substrate concentration at which the rate is half of its maximum.
